{
  "source": "the nanobody polyreactivity screen of Harvey et al. (2022)",
  "data": [
    {"assay": "yeast display, Sf9 membrane polyspecificity reagent, FACS + sequencing; frameworks hold sequencing errors", "method_in_brief": "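A nanobody's polyreactivity label depends on the gate it was sorted from. Yeast display cells were stained with 10% biotinylated, detergent-solubilized Sf9 membrane reagent for 1 hour at 4 °C, enriched on streptavidin microbeads and sorted by FACS. The low and high (top ~1%) gates were set on anti-HA fluorescence for expression and streptavidin fluorescence for reagent binding.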", "values": [
      {"sequence": "QVQLVESGGGLVQAGGSLRLSCAASGFIFAYYAMGWYRQAAGKERELVAAITSDGSTYYADSVKGRFTISRDNAKNTVYLQMNSLKPEDTAVYYCNTYWVLRPGYNYWGQGTQVTVSS", "polyreactivity (PSR sort gate)": "high polyreactivity"},
      {"sequence": "QVQLVESGGGLVQAGGSLRLSCAASGFIFAYYAMGWYRQAPGKERELVAAISKRGGSTYYADSVKGRFTISRDNAKNTVYLQMNSLKPEDTAVYYCAADGHGGYGYWGQGTQVTVSS", "polyreactivity (PSR sort gate)": "high polyreactivity"},
      {"sequence": "QVQLVESGGGLVQAGGSLRLSCAASGFIFAYYAMGWYRQAPGKERELVAAITIDGSTNYADSVKGRFTISRDNAKNTVYLQMNSLKPEDTAVYYCAAADHPPVWYGYWGQGTQVTVSS", "polyreactivity (PSR sort gate)": "low polyreactivity"},
      {"sequence": "QVQLVESGGGLVQAGGSLRLSCAASGFIFAYYVMGWYRQAPGKERELVAAITSRGGRTYYADSVKGRFTISRDNAKNTVYLQMNSLKPEDTAVYYCAAYRQLVNLREDYWGQGTQVTVSS", "polyreactivity (PSR sort gate)": "high polyreactivity"},
      {"sequence": "QVQLVESGGGLVQAGGSLRLSCAASGFIFDAYVMGWYRQAPGKERELVAAITSSGGSTYYADSVKGRFTISRDNAKNTVYLQMNSLKPEDTAVYYCAATYWPWFVGYTYDLDYWGQGTQVTVSS", "polyreactivity (PSR sort gate)": "low polyreactivity"},
      {"sequence": "QVQLVESGGGLVQAGGSLRLSCAASGFIFDDNAMGWYRQAPGKERELVAAITSGGGSTYYADSVKGRFTISRDNAKNTVYLQMNSLKQEDTAVYYCNAVPSQHDEFDSWGQGTQVTVSS", "polyreactivity (PSR sort gate)": "low polyreactivity"},
      {"sequence": "QVQLVESGGGLVQAGGSLRLSCAASGFIFDDYARGWYRQAPGKERELVADIDYSGGSRYYADSVKGRFTISRDNAKNPVYLQMTSLKPEETAVYYGTAYYGILYYLLDYWGQGTQVTVSS", "polyreactivity (PSR sort gate)": "high polyreactivity"},
      {"sequence": "QVQLVESGGGLVQAGGSLRLSCAASGFIFDGNAMGWYRQAPGKERELVAAIRSGGRPTYAPSVKGRFTSSRDNAKNTVDLQMNSLNPEDTAVYYCAARSIYPYYYRRDNRYYYWGQGTQVTVSS", "polyreactivity (PSR sort gate)": "high polyreactivity"},
      {"sequence": "QVQLVESGGGLVQAGGSLRLSCAASGFIFDGYAMGWYRQAPGKERELVADISSVGSTYYADSVKGRFTISRDNAKNTVYLQMNSLKPEDTAVYYCAAVRFYTYNYWGQGTQVSVSS", "polyreactivity (PSR sort gate)": "low polyreactivity"},
      {"sequence": "QVQLVESGGGLVQAGGSLRLSCAASGFIFDGYAMGWYSQAPGKERELVAAIDSGGDRTYYADSVKGRFTISRDNAKNTVYLQMNSLKPEDTAVYYCAADSSDPTGYDYWGQGTQVTVSS", "polyreactivity (PSR sort gate)": "low polyreactivity"},
      {"sequence": "QVQLVESGGGLVQAGGSLRLSCAASGFIFDGYTMGWYRQAPGKERELVAAITTSGTSTYYADSVKGRFTISRDNAKNTVYLQMNSLKPEDTADYYCAARQYRHRVKYYYWGQGTQVTVSS", "polyreactivity (PSR sort gate)": "high polyreactivity"},
      {"sequence": "QVQLVESGGGLVQAGGSLRLSCAASGFIFDLYAMGWYRQAPGKERELVAAITYSGGSTYYADSVKGRFTISRDNAKNTVYLQMNSLKPEDTAVYYCATVEKFYEYDHWGQGTQVTVSS", "polyreactivity (PSR sort gate)": "low polyreactivity"},
      {"sequence": "QVQLVESGGGLVQAGGSLRLSCAASGFIFDNYAMGWYRQAPGKERELVAAISRSGGSTYYADSVKGRFTISRDNAKNTVYLQMNSLKPEDTAVYYCAARGKFGIVRYDYWGQGTQVTVSS", "polyreactivity (PSR sort gate)": "high polyreactivity"},
      {"sequence": "QVQLVESGGGLVQAGGSLRLSCAASGFIFDNYAMGWYRQAPGKERELVAAISRSGGSTYYADSVKGRFTISRDNAKNTVYLQMNSLKPEDTAVYYCATSGPRGWSLHDYWGQGTQVTVSS", "polyreactivity (PSR sort gate)": "high polyreactivity"},
      {"sequence": "QVQLVESGGGLVQAGGSLRLSCAASGFIFDRNAMGWYRQAPGKEREFVAAITRRGGTTYYADSVKGRFTISRDNAKNTVYLQMNSLKPEDTAVYYCAATYLHVYRRRFYYWGQGTQVTVSS", "polyreactivity (PSR sort gate)": "high polyreactivity"},
      {"sequence": "QVQLVESGGGLVQAGGSLRLSCAASGFIFDSYAMGCYRQAPGKETELVAAISYSGGNTYYADSVKGRFTISRDNAQITVYLQMNSLKPEDTAFYYCAAEWSDSRWWRLWWYGEDDYWGQGTQVTVSS", "polyreactivity (PSR sort gate)": "high polyreactivity"},
      {"sequence": "QVQLVESGGGLVQAGGSLRLSCAASGFIFDSYAMGWYRQAPGKERELVAAISWSGSSTYYADSVKGRFTISRDNAKNTVYLQMNSLKPEDTAVYYCAALVYPYWGCSMYYWGQGTQVTVSS", "polyreactivity (PSR sort gate)": "high polyreactivity"},
      {"sequence": "QVQLVESGGGLVQAGGSLRLSCAASGFIFDSYAMGWYRQAPGKERELVAAITTSGGRSYYADSVKGRFTISRDNAKNTVYLQMNSLKPEDTAVYYCAAKYTARWGFDYWGQGTQVTVSS", "polyreactivity (PSR sort gate)": "high polyreactivity"},
      {"sequence": "QVQLVESGGGLVQAGGSLRLSCAASGFIFDSYAMGWYRQAPGKERELVAAITYSGSSTYYADSVKGRFTISRDNAKNTVYLQMNSLKPEDTAVYYCAAVWRYSHLYGYWGQGTQVTVSS", "polyreactivity (PSR sort gate)": "high polyreactivity"},
      {"sequence": "QVQLVESGGGLVQAGGSLRLSCAASGFIFDVYAMGWYRQAPGKERELVAAISSSGGRTYYADSVKGRFTISRDNAKNTVYLQMNSLKPEDTAVYYCAAKTHSRTKVYTADYWGQGTQVTVSS", "polyreactivity (PSR sort gate)": "high polyreactivity"},
      {"sequence": "QVQLVESGGGLVQAGGSLRLSCAASGFIFDVYAMGWYRQAPGKERELVAAITGSGSITYYADSVKGRFTISRDNAKNTVYLQMNSLKPEDTAVYYCAALGPTQDRDYWGQGTQVTVSS", "polyreactivity (PSR sort gate)": "high polyreactivity"},
      {"sequence": "QVQLVESGGGLVQAGGSLRLSCAASGFIFDYNAMGWYRQAPGKERELVAAISWSGSRTYYAVSVKGRFTISRDNAKNTVYLQMNSLKPEDTAVYYCAAEWSGEAAWQVGAEDDYWGQGTQVTVSS", "polyreactivity (PSR sort gate)": "low polyreactivity"},
      {"sequence": "QVQLVESGGGLVQAGGSLRLSCAASGFIFDYNVMGWYRQAPGKKGSWVAAISWSGGSTYYADSVKGRFTISRDNAKNTVYLQMNSLKPEDTAVYYCAARGTSTYRGTGRYDYWGQGTQVTVSS", "polyreactivity (PSR sort gate)": "high polyreactivity"},
      {"sequence": "QVQLVESGGGLVQAGGSLRLSCAASGFIFDYYAMGWYRQAPGKERELVAAITSRGGSTYYADSVKGRFTISRDNAKNTVYLQMNSLKQEDTAVYYCAARRRSAEYNYWGHGTQVTVSS", "polyreactivity (PSR sort gate)": "high polyreactivity"},
      {"sequence": "QVQLVESGGGLVQAGGSLRLSCAASGFIFEAYAMGWYRQAPGKERELVAAIDSGGSTDYADSVKGRFTISRDNAKNTVYLQMNSLTPEDTAVYYCIAERAYLLWYNFDYWGQGTKVTVSS", "polyreactivity (PSR sort gate)": "low polyreactivity"},
      {"sequence": "QVQLVESGGGLVQAGGSLRLSCAASGFIFEGYAMGWYRQAPGKERELVAAINWSGTTTYYADSVKGRFTISRDNAKNTVYLQMNSLKPEDTAVYYCNARYYVLRGYDYWGQGTQVTVSS", "polyreactivity (PSR sort gate)": "low polyreactivity"},
      {"sequence": "QVQLVESGGGLVQAGGSLRLSCAASGFIFEPYAMGWYRQAPGKERELVAAISSGGSTYADSVKGRFTISRDNAKNTVYLQMISLKPEDTAVYYCAADSYYSVWGFYYWGQGTQVTVSS", "polyreactivity (PSR sort gate)": "low polyreactivity"},
      {"sequence": "QVQLVESGGGLVQAGGSLRLSCAASGFIFERNAMGWYRQAPGKERELVAGISNNGGSTYYADSVKGRFTISRDNAKNTVYLQMNSLKPEDTAVYYCARDPNDDNSFPYDYWGQGTQVTVSS", "polyreactivity (PSR sort gate)": "low polyreactivity"},
      {"sequence": "QVQLVESGGGLVQAGGSLRLSCAASGFIFETYAMGWYRQEPGKERELVAAISRGASTYYADSVKGRFTISRDNAKNTVYLQMNSLKPEDTAVYYCAAKRLSWHRYGYWGQGTQVTVSS", "polyreactivity (PSR sort gate)": "low polyreactivity"},
      {"sequence": "QVQLVESGGGLVQAGGSLRLSCAASGFIFEWNAMGWYRQAPGKERELVASITFGGGNTYYADSVKGRFTISRDNAKNTVYLQMNSLKPEDTAVYYCAADDGVTYRGIIFSYLGQGTQVTVSS", "polyreactivity (PSR sort gate)": "low polyreactivity"},
      {"sequence": "QVQLVESGGGLVQAGGSLRLSCAASGFIFEWYDMGWYRQAPGKERELVASISWSGGSTYYADSVKGRFTISRDNAKNTVYLQMNSLKPEDTAVYYCNTPSYTYWHWYDYWGQGTQVTVSS", "polyreactivity (PSR sort gate)": "high polyreactivity"},
      {"sequence": "QVQLVESGGGLVQAGGSLRLSCAASGFIFFEYAMGWYRQAPGKERELVAAISWSDDTTYYADSVKGRFTISRDNAKNTVYLQMNSLNPEDTAVYYCNVRYWGFYDYDYWGQGSQVTVSS", "polyreactivity (PSR sort gate)": "low polyreactivity"},
      {"sequence": "QVQLVESGGGLVQAGGSLRLSCAASGFIFFINDMGWYRQAPGTERELVAAISWSGGSTYYADSVKGRFTISRDNAKNTVYLQMNSLKPEDTAVYYCNTDVPTAQYDYWGQGTQVTVSS", "polyreactivity (PSR sort gate)": "low polyreactivity"},
      {"sequence": "QVQLVESGGGLVQAGGSLRLSCAASGFIFGANAMGWYRQAPGKERELVADINRGSTYYADSVKGRFTISRDNAKNTVYLQMNSLKPEDTAVYYCNRVYTQTFNPWGFEYWGQGTQVTVSS", "polyreactivity (PSR sort gate)": "high polyreactivity"},
      {"sequence": "QVQLVESGGGLVQAGGSLRLSCAASGFIFGDYAMGWYRQAPGKERELVADINWTGGSTYYADSVKGRFTISRDNAKNTVYLQMNSLKPEDTAVYYCAKDDYAFLITWVDYWGQGTQVTVSS", "polyreactivity (PSR sort gate)": "low polyreactivity"},
      {"sequence": "QVQLVESGGGLVQAGGSLRLSCAASGFIFGGDPMGWYRQARGSDRELVAAISSSGGRTYYADSVKRRFTISRDNAKNNVYLQLNSLKPEDTAVYSCAVPRFGSAAKRYYYWGQGTQVTVTS", "polyreactivity (PSR sort gate)": "high polyreactivity"},
      {"sequence": "QVQLVESGGGLVQAGGSLRLSCAASGFIFGGYAMGWYRQAPGKEREFVAAIRQRGGSTYYADSVKGRFTISRDNAKNTVYLQMNSLKPEDTAVYYCAATVRAVQASVRYGYWGQGTQVTVSS", "polyreactivity (PSR sort gate)": "high polyreactivity"},
      {"sequence": "QVQLVESGGGLVQAGGSLRLSCAASGFIFGGYAMGWYRQAPGKERELVAAISRSGGSTYYADSVKGRFTISRDNAKNTVDLQINSLKPEDTAVYYCYAVTRRQGFNYWGQGTQVTVSS", "polyreactivity (PSR sort gate)": "high polyreactivity"},
      {"sequence": "QVQLVESGGGLVQAGGSLRLSCAASGFIFGGYAMGWYRQAPGKERELVAAISYGGGSTYYADSVNGRFTISRYNAKNTVYLQMNSLKPEDTAVYYCAADIPGYRYTGYRRGYWGQGTQVTVSS", "polyreactivity (PSR sort gate)": "high polyreactivity"},
      {"sequence": "QVQLVESGGGLVQAGGSLRLSCAASGFIFGHNAMGWYRQAPGKERELVADITWSGGSTYYADSVKGRFTISRDNAKNTVYLQMNSLKPEDTAVYYCNARGRASATGRRGRPDPFGYWGQGTQVTVSS", "polyreactivity (PSR sort gate)": "high polyreactivity"},
      {"sequence": "QVQLVESGGGLVQAGGSLRLSCAASGFIFGHNAMGWYRQAPGKQRELVAAITYSGGSTYYADSVKGRFTISRDNAKNTVYLQMNSLKPEDTAVSYSAASNQWSSTYLTYGYYYWGQGTQVTVSS", "polyreactivity (PSR sort gate)": "low polyreactivity"},
      {"sequence": "QVQLVESGGGLVQAGGSLRLSCAASGFIFGKYAMGWYRQAPRKERELGAAISKSGGSTYYADSVKGRFTISRDNAKNTVYLQMNSLKPEDTAVYYCAARSLGHYGSWGQGTQVTVSS", "polyreactivity (PSR sort gate)": "high polyreactivity"},
      {"sequence": "QVQLVESGGGLVQAGGSLRLSCAASGFIFGLYAMGWYRQAPGKETELVATISWDGGSTYYADSVKGRFTISRDNAKNTVYLQMNSLKPEDTAVYYCAATYLYRSPYVPMDYWGQGTQVTVSS", "polyreactivity (PSR sort gate)": "low polyreactivity"}
    ]}
  ]
}
